{"source": "patent US20220363757A1", "about": "(SYMPHOGEN A S, published 2022)", "binders": {"B1": {"name": "Fab fragment of antibody 15532 (Fab, V domains shown, not shown: a dimerising Fc or GST)", "VH": "QVQLQQWGAGLLRPSETLSLTCAVYGESFSGYYWNWIRQPPGKGLEWIGEINHSGSTNYNPSLKSRVTISVDTSKTQFSLKLSSVTAADTAVYYCARGWDLLDWNDYWNEYWGQGTLVTVSS", "VL": "EIVLTQSPATLSLSPGERATLSCRASQSVSSYLAWYQQKPGQAPRLLIYDASNRATGIPARFSGSGSGTDFTLTISSLEPEDFAVYYCQQRSNWPLTFGGGTKVEIKR", "notes": "monomeric Fab made by GingisKHAN digestion of the IgG1"}, "B2": {"name": "Fab fragment of antibody 15431 (Fab, V domains shown, not shown: a dimerising Fc or GST)", "VH": "QVQLQQSGPGLVKPSQTLSLTCAISGDSVSSNSAAWNWIRQSPSRGLEWLGRTYYRSKWYNDYAVSVKSRITINPDTSKNQFSLQLNSVTPEDTAVYYCARDDDWNDFDYWGQGTLVTVSS", "VL": "B1 VL", "notes": "as for B1"}, "B3": {"name": "Fab fragment of antibody 15011 (Fab, V domains shown, not shown: a dimerising Fc or GST)", "VH": "EVQLLESGGGLVQPGGSLRLSCAASGFDFRSYAMMWVRQAPGKGLEWVGGINGEVGGSNTYYAPAVKGRATISRDNSKNTLYLQMNSLRAEDTAVYYCVKGAGACGICNDDIDAWGQGTLVTVSS", "VL": "SYELTQDPAVSVALGQTVRITCSGAGSYAGSYYYGWHQQKPGQAPVTVIYDNDKRPSNIPDRFSGSSSGNTASLTITGAQAEDEADYYCGSTNDNDDGGLFGSGTKVTVLG", "notes": "as for B1"}, "B4": {"name": "Fab fragment of antibody 15572 (Fab, V domains shown, not shown: a dimerising Fc or GST)", "VH": "QLQLQESGPGLVKPSETLSLTCTVSGDSISSSSYYWGWIRQPPGKGLEWIGSIFYSGNTYYNPSLKSRVTISVDTSKNQFSLKLSSVTAADTAVYYCAREDDFLTDYYGAFDIWGQGTMVTVSS", "VL": "not shown", "notes": "as for B1"}}, "assay_in_all_cases": "SPR, Fab over captured mutant LAG-3-Fc;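 also: fc fusion variants captured on anti-human IgG Fc sensor, Fab injected with association then dissociation phases, KD obtained from Langmuir one-to-one fit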", "key": {"[1]": {"target": "T1, human LAG-3 domain 1-2 Fc fusion, point mutation #51 G107A (human, UniProt P18627 23-266)", "T1 construct": "not shown: human IgG1 Fc, AA P101-K330", "T1 sequence": "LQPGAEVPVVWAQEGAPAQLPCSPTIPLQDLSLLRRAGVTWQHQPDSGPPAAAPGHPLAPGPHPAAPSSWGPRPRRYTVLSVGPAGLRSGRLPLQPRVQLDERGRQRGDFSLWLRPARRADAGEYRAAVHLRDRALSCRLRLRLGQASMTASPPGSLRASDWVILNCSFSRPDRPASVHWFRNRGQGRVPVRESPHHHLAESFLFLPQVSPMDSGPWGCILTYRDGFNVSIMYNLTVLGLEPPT"}, "[2]": {"target": "T2, human LAG-3 domain 1-2 Fc fusion, point mutation #18 P67A (human, UniProt P18627 23-266)", "T2 construct": "not shown: human IgG1 Fc, AA P101-K330", "T2 sequence": "T1 sequence with P45A, A85G"}, "[3]": {"target": "T3, human LAG-3 domain 1-2 Fc fusion, point mutation #52 G108A (human, UniProt P18627 23-266)", "T3 construct": "not shown: human IgG1 Fc, AA P101-K330", "T3 sequence": "T1 sequence with A85G, G86A"}, "[4]": {"target": "T4, human LAG-3 domain 1-2 Fc fusion, point mutation #13 R58A (human, UniProt P18627 23-266)", "T4 construct": "not shown: human IgG1 Fc, AA P101-K330", "T4 sequence": "T1 sequence with R36A, A85G"}, "[5]": {"target": "T5, human LAG-3 domain 1-2 Fc fusion, point mutation #20 A73S (human, UniProt P18627 23-266)", "T5 construct": "not shown: human IgG1 Fc, AA P101-K330", "T5 sequence": "T1 sequence with A51S, A85G"}, "[6]": {"target": "T6, human LAG-3 domain 1-2 Fc fusion, point mutation #2 Q41A (human, UniProt P18627 23-266)", "T6 construct": "not shown: human IgG1 Fc, AA P101-K330", "T6 sequence": "T1 sequence with Q19A, A85G"}, "[7]": {"target": "T7, human LAG-3 domain 1-2 Fc fusion, point mutation #31 P84A (human, UniProt P18627 23-266)", "T7 construct": "not shown: human IgG1 Fc, AA P101-K330", "T7 sequence": "T1 sequence with P62A, A85G"}, "[8]": {"target": "T8, human LAG-3 domain 1-2 Fc fusion, point mutation #70 G130A (human, UniProt P18627 23-266)", "T8 construct": "not shown: human IgG1 Fc, AA P101-K330", "T8 sequence": "T1 sequence with A85G, G108A"}, "[9]": {"target": "T9, human LAG-3 domain 1-2 Fc fusion, point mutation #66 G126A (human, UniProt P18627 23-266)", "T9 construct": "not shown: human IgG1 Fc, AA P101-K330", "T9 sequence": "T1 sequence with A85G, G104A"}}, "note": "Changes are numbered by the printed parent chain."}
{"binder": "B1", "values": [{"measurement": "KD mutant/KD wild type", "setting": "[1]", "value": 2.1, "unit": "fold"}, {"measurement": "KD mutant/KD wild type", "setting": "[2]", "value": 3.8, "unit": "fold"}, {"measurement": "KD mutant/KD wild type", "setting": "[3]", "value": 1, "unit": "fold"}, {"measurement": "KD mutant/KD wild type", "setting": "[4]", "value": 0.8, "unit": "fold"}, {"measurement": "KD mutant/KD wild type", "setting": "[5]", "value": 0.7, "unit": "fold"}, {"measurement": "KD mutant/KD wild type", "setting": "[6]", "value": 3.4, "unit": "fold"}, {"measurement": "KD mutant/KD wild type", "setting": "[7]", "value": 0.5, "unit": "fold"}, {"measurement": "KD mutant/KD wild type", "setting": "[8]", "value": 4.4, "unit": "fold"}, {"measurement": "KD mutant/KD wild type", "setting": "[9]", "value": 0.9, "unit": "fold"}]}
{"binder": "B2", "values": [{"measurement": "binding result", "setting": "[1]", "value": "no binding (tested: 300 nM)"}, {"measurement": "binding result", "setting": "[2]", "value": "no binding (tested: 300 nM)"}, {"measurement": "KD mutant/KD wild type", "setting": "[3]", "value": 0.3, "unit": "fold"}, {"measurement": "KD mutant/KD wild type", "setting": "[4]", "value": 1.2, "unit": "fold"}, {"measurement": "KD mutant/KD wild type", "setting": "[5]", "value": 0.6, "unit": "fold"}, {"measurement": "binding result", "setting": "[6]", "value": "no binding (tested: 300 nM)"}, {"measurement": "KD mutant/KD wild type", "setting": "[7]", "value": 1.1, "unit": "fold"}, {"measurement": "binding result", "setting": "[8]", "value": "no binding (tested: 300 nM)"}, {"measurement": "KD mutant/KD wild type", "setting": "[9]", "value": 0.9, "unit": "fold"}]}
{"binder": "B3", "values": [{"measurement": "KD mutant/KD wild type", "setting": "[1]", "value": 5.7, "unit": "fold"}, {"measurement": "KD mutant/KD wild type", "setting": "[2]", "value": 0.6, "unit": "fold"}, {"measurement": "KD mutant/KD wild type", "setting": "[3]", "value": 0.5, "unit": "fold"}, {"measurement": "KD mutant/KD wild type", "setting": "[4]", "value": 1.7, "unit": "fold"}, {"measurement": "KD mutant/KD wild type", "setting": "[5]", "value": 0.7, "unit": "fold"}, {"measurement": "KD mutant/KD wild type", "setting": "[6]", "value": 0.7, "unit": "fold"}, {"measurement": "KD mutant/KD wild type", "setting": "[7]", "value": 1, "unit": "fold"}, {"measurement": "KD mutant/KD wild type", "setting": "[8]", "value": 0.6, "unit": "fold"}, {"measurement": "KD mutant/KD wild type", "setting": "[9]", "value": 0.9, "unit": "fold"}]}
{"binder": "B4", "values": [{"measurement": "binding result", "setting": "[1]", "value": "no binding (tested: 300 nM)"}, {"measurement": "binding result", "setting": "[2]", "value": "no binding (tested: 300 nM)"}, {"measurement": "KD mutant/KD wild type", "setting": "[3]", "value": 0.4, "unit": "fold"}, {"measurement": "KD mutant/KD wild type", "setting": "[4]", "value": 0.8, "unit": "fold"}, {"measurement": "KD mutant/KD wild type", "setting": "[5]", "value": 0.6, "unit": "fold"}, {"measurement": "binding result", "setting": "[6]", "value": "no binding (tested: 300 nM)"}, {"measurement": "KD mutant/KD wild type", "setting": "[7]", "value": 0.9, "unit": "fold"}, {"measurement": "binding result", "setting": "[8]", "value": "no binding (tested: 300 nM)"}, {"measurement": "KD mutant/KD wild type", "setting": "[9]", "value": 0.9, "unit": "fold"}]}
